In patent US20010044102, “ASSAYS AND REAGENTS FOR IDENTIFYING MODULATORS OF CDC25-MEDIATED MITOTIC ACTIVATION” (published 2001):

B1: MB3 (A3) mutant oligo (dsDNA)
DNA 1: ACTACAGACACCTGCCACCACACCCAA
DNA 2: TTGGGTGTGGTGGCAGGTGTCTGTAGT
modifications: [12]
B2: MB1 (A1) mutant oligo (dsDNA)
DNA 1: GGGCCTGCCAACTGCACCCCGCCCGGG
DNA 2: CCCGGGCGGGGTGCAGTTGGCAGGCCC
modifications: [11,12]
B3: MB2 (A2) mutant oligo (dsDNA)
DNA 1: GCACAAGACAACTGCTTAGCAAACGGG
DNA 2: CCCGTTTGCTAAGCAGTTGTCTTGTGC
modifications: [11,12]

Biological target: GST-C92 Myc/Max heterodimer (UniProt P01106;P61244 P01106:363-454,P61244:1-160)
Sequence (P01106 363-454, chain 1 of 2): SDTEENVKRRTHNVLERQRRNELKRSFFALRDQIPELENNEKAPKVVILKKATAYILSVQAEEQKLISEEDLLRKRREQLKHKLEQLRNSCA
Sequence (P61244 whole entry, chain 2 of 2): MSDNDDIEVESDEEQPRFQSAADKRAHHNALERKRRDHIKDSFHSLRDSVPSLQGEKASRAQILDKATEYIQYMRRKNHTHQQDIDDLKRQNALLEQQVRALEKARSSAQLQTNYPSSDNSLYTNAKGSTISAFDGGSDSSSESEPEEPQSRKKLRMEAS
Experiment: competition; mutant oligo did not compete
Conditions: tags: GST on Myc C-terminal 92 aa (C92Myc)
Excerpt: To test whether Myc/Max complexes could efficiently bind to the isolated sites, we performed electrophoretic mobility shift assays (EMSA) on each DNA fragment, confirming that they represent functional myc-binding elements in vitro. For instance, oligonucleotides, matching the Myc binding site from F1, F2 and from the second intron of the cdc25A (MB3) were also checked by EMSA. In this case, oligonucleotides corresponding to a wild type site and a single point mutant within the consensus sequence site were used to compete with the cdc25A sites. […] Similar results were obtained for MB2 and MB3.
For the identification of the Myc/Max binding sequences within the cdc25 genomic regions we utilized an affinity chromatography procedure, similar to immunoprecipitation procedures (Okamoto et al. (1994) EMBO J. 13:4816-4822). Briefly, cdc25 (A, B and C) genomic clones were digested with the Hinfl restriction endonuclease, end-labeled with p32 and further incubated with 10 ng of the GSTC92Myc/Max complexes in the binding buffer (Ayer et al. (1993) Cell 72:211-222), followed by incubation with 20 μl of glutathione sepharose for 30 min at 4° C. Isolated complexes were washed four times in the binding buffer, eluted with proteinase K digestion, treated with phenol/chloroform and further ethanol precipitated. Precipitated material was resuspended in 10-20 μl of TE and subjected to polyacrylamide gel (PAG) electrophoresis, followed by autoradiography. Total digests were treated the same way, except affinity chromatography on the glutathione beads, and run as a control on a gel on a parallel lane with the purified material. Electrophoretic mobility shift assays (EMSA) were done either with F1 or F2 fragments or with the synthetic oligonucleotides, corresponding to MB 1, MB2 or MB3 as described in the art, c. f., Ayer et al. (1993) Cell 72:211-222. Mutant oligonucleotides correspond to the same sequence as F1 and F2 with CATGTG changed to CAACTG (for A1 and A2) or CACGTG changed to CACCTG (for A3). CM-1 oligonucleotide has been described (Ayer et al. supra).

Binding result, no binding:
B1
B2
B3
